The target in this assay is T1, CSPG (bovine) (D8428, Sigma) (bovine, UniProt P21793 31-360, carries chondroitin sulfate A (CSA) glycosaminoglycan chain(s); the filing attributes the binding of VAR2CSA to this glycan).
T1 construct: also called chondroitin sulfate proteoglycan; CSA proteoglycan
As to the kind of experiment: quartz crystal microbalance (Attana A100); legend: N/A = no KD value could be determined, due to a lack of binding to CSA.

T1 sequence (P21793 31-360): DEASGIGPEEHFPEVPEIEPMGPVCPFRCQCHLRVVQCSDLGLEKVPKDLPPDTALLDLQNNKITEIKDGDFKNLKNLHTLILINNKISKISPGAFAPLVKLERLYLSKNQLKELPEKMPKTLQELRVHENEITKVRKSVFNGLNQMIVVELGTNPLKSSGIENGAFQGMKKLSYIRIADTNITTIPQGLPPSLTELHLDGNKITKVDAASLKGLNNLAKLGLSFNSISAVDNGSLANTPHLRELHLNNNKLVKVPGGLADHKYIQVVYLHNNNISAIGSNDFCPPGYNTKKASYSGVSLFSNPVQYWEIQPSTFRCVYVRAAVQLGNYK

B1: ID1-DBL2Xa (3D7, Baculo) (other)
chain: LSFILNSSDANNPSEKIQKNNDEVCNCNESGIASVEQEQISDPSSNKTCITHSSIKANKKKVCKHVKLGVRENDKDLRVCVIEHTSLSGVENCCCQDFLRILQENCSDNKSGSSSNGSCNNKNQEACEKNLEKVLASLTNCYKCDKCKSEQSKKNNKNWIWKKSSGKEGGLQKEYANTIGLPPRTQSLCLVVCLDEKGKKTQELKNIRTNSELLKEWIIAAFHEGKNLKPSHEKKNDDNGKKLCKALEYSFADYGDLIKGTSIWDNEYTKDLELNLQKIFGKLFRKYIKKNNTAEQDTSYSSLDELRESWWNTNKKYIWLAMKHGAGMNSTTCCGDGSVTGSGSSCDDIPTIDLIPQYLRFLQEWVEHFCKQRQEKVKPVIENCKSCKESGGTCNGECKTECKNKCEVYKKFIEDCKGGDGTAGSSWVKRWDQIYKRYSKYIEDAKRNRKAGTKNCGPSSTTNAA
notes: not shown: V5 and His tag at the C-terminal (modified pAcGP67-A)
Take B1: the binding result was “no binding”.

B2: DBL1X-DBL2Xa (FCR3, Baculo) (other)
chain: HSDSGKYDPCEKKLPPYDDNDQWKCQQNSSDGSGKPENICVPPRRERLCTYNLENLKFDKIRDNNAFLADVLLTARNEGEKIVQNHPDTNSSNVCNALERSFADLADIIRGTDQWKGTNSNLEKNLKQMFAKIRENDKVLQDKYPKDQKYTKLREAWWNANRQKVWEVITCGARSNDLLIKRGWRTSGKSDRKKNFELCRKCGHYEKEVPTKLDYVPQFLRWLTEWIEDFYREKQNLIDDMERHREECTREDHKSKEGTSYCSTCKDKCKKYCECVKKWKTEWENQENKYKDLYEQNKNKTSQKNTSRYDDYVKDFFEKLEANYSSLENYIKGDPYFAEYATKLSFILNPSDANNPSGETANHNDEACNCNESGISSVGQAQTSGPSSNKTCITHSSIKTNKKKECKDVKLGVRENDKDLKICVIEDTSLSGVDNCCCQDLLGILQENCSDNKRGSSSNDSCDNKNQDECQKKLEKVFASLTNGYKCDKCKSGTSRSKKKWIWKKSSGNEEGLQEEYANTIGLPPRTQSLYLGNLPKLENVCEDVKDINFDTKEKFLAGCLIVSFHEGKNLKKRYPQNKNSGNKENLCKALEYSFADYGDLIKGTSIWDNEYTKDLELNLQNNFGKLFGKYIKKNNTAEQDTSYSSLDELRESWWNTNKKYIWTAMKHGAEMNITTCNADGSVTGSGSSCDDIPTIDLIPQYLRFLQEWVENFCEQRQAKVKDVITNCKSCKESGNKCKTECKTKCKDECEKYKKFIEACGTAGGGIGTAGSPWSKRWDQIYKRYSKHIEDAKRNRKAGTKNCGTSSTTNAA
notes: Range derived by me from the FCR3 DBL1X forward primer and the FCR3 DBL2Xa reverse primer (STTNAA), which ends 93 residues before the DBL2Xb border; not shown: V5 and His tag at the C-terminal (modified pAcGP67-A)
Take B2: the binding result is listed as “no binding”.

(Values after US20170016905A1 (VAR2 PHARMACEUTICALS, published 2017).)
